Broadly, the Kd is the concentration at which binding is half-saturated. A higher Kd goes with a looser complex. The stoichiometry N is a count of units in the complex or per binding partner.

The values below come from publication PMC2940854, “Crystal Structure of the RNA Recognition Motif of Yeast Translation Initiation Factor eIF3b Reveals Differences to Human eIF3b” (PLoS ONE, 2010).

The target of the assay is T1, yeast eIF3j (Hcr1) (yeast, UniProt Q05775 1-265).
T1 construct: source: E. coli Rosetta2 (DE3), pGEX-6P-1, purified (GSTrap, PreScission cleavage, second glutathione step, Superdex S-75)
T1 sequence (Q05775 whole entry): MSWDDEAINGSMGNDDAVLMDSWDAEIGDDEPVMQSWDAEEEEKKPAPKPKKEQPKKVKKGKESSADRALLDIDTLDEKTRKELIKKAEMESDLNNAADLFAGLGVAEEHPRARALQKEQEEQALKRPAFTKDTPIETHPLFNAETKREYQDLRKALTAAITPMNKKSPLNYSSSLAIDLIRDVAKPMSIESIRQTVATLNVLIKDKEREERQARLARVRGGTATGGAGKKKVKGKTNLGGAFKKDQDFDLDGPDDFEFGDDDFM
Nature of the assay: ITC; VP-ITC; 20 µL aliquots of 229 µM eIF3b-RRM^76–170 injected into the cell with 10 µM Hcr1; 200 mM NaCl, 10 mM Hepes pH 7.5, 5% glycerol; single binding site model. Conditions: both partners purified. For orientation: In ITC the heat of successive injections is recorded.

B1: yeast eIF3b-RRM, residues 76-170 (domain or fragment, UniProt P06103 76-170, looked up)
chain: DQYIVVNGAPVIPSAKVPVLKKALTSLFSKAGKVVNMEFPIDEATGKTKGFLFVECGSMNDAKKIIKSFHGKRLDLKHRLFLYTMKDVERYNSDD
notes: also called eIF3b-RRM^76–170; RRM^76–170; source: E. coli Rosetta2 (DE3), pGEX-6P-1, purified (GSTrap, PreScission cleavage, Superdex S-75)
Take B1: binding was characterised by a dissociation constant (Kd) of 7.5 ± 0.5 µM, the dH is -9.28 ± 0.217 kcal/mol and the “stoichiometry N” value was approximately 1.
